The text below walks through data of paper PMC10157364 (2023).

The labels stand for the following.
B1: ON103 (antibody, V domains shown)
VH: EVQLQESGGGLVQPGGSLRLSCAASGFTFSIYSMNWVRQAPGKGLEWVSSIGSSGGTTYYADSVKGRFTISRDNSKNTLYLQMNSLRAEDTAVYYCAGSQYLYGMDVWGQGTTVTVSS
VL: DIQMTQSPSSLSASVGDRVTITCRSSQRILTYLNWYQQKPGKAPKLLIYVGSHSQSGVPSRFRGSGSETDFTLTISGLQSEDSATYYCQQSFFTPLTFGGGTKVEIK
B2: C0008 (antibody, V domains shown)
VH: B1 VH with Q5L, Y101W
VL: B1 VL with L30M, Y49F, G51A, S80P, F93W
B3: ON203 (antibody, V domains shown)
VH: B1 VH
VL: B1 VL with L30M, S80P

As usually defined, the Kd is the concentration at which binding is half-saturated. Low readings indicate higher affinity, high ones lower affinity. Broadly, the EC50 is the midpoint of the concentration-response curve.

Substitutions are numbered along the chain they refer to.

The first experiment addresses T1, human MIF treated with 0.2% Proclin300 (oxMIF surrogate) (human, UniProt P14174 1-115, treated with 0.2% Proclin300 to transform MIF into an oxMIF surrogate).
T1 chain: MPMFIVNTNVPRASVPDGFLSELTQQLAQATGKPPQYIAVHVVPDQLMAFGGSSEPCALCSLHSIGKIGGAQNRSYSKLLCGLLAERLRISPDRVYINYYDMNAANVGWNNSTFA
Briefly: SPR. On the technique in general: Surface plasmon resonance follows binding to a sensor surface in real time, without labels.
B1 gave a Kd of 3.7 nM. This lies in the single-digit nanomolar range.

For B2, the Kd was 3.5 nM.

In turn, B3 returned a Kd of 6.1 nM.

The target in the next experiment is mouse MIF treated with 0.2% Proclin300 (oxMIF surrogate) (mouse, UniProt P34884 1-115, treated with 0.2% Proclin300 to transform MIF into an oxMIF surrogate). Description: ELISA. (In general: An ELISA detects its analyte on a solid surface through an enzyme-linked reagent.)
The molecule B1 came in with a 50% effective concentration (EC50) of 4.6 nM.

As for B2, a half-maximal effect (EC50) was put at 3.1 nM.

In the case of B3, the EC50 turned out to be 5.2 nM. This EC50 is about 1.7-fold higher than that of the molecule before.

The target of the next experiment is T1, human MIF treated with 0.2% Proclin300 …. Briefly: ELISA.
For B1, it took 0.6 nM to reach a half-maximal effect (EC50).

In turn, B2 displayed an EC50 of 0.6 nM.

Consider B3, for which it took 0.7 nM to reach a half-maximal effect (EC50).
